Tests used:
Assay type in all cases: in vivo
S180 sarcoma solid tumor = test: mouse S180 sarcoma solid tumor model, inhibitory rate of tumor weight; conditions: S180, dose 60.0 mg/kg weight (positive control)
Method: (§1) In mouse experimental tumor model, such as ehrlich ascites carcinoma and S180 entity tumor, the peptide derived from the scorpion or partial fragment, derivative or analogue thereof having analgesic and antitumor activity obtained in example 1,2 and 6 was injected subcutaneously in a dose of 0.1 mg/kg weight to 16.0 mg/kg weight for continuous seven days. […] For example, the peptide of the SDS-PAGE single band obtained in Example 1 was administrated at the dose of 0.639 mg/kg weight. […] The peptide derived from the scorpion or partial fragment, derivative or analogue thereof having analgesic and antitumor activity obtained in example 1,2 and 6 was administrated by stomach infusion in a dose of 0.1 mg/kg weight to 16.0 mg/kg weight for continuous ten days.

[1] = system: ehrlich ascites carcinoma; test: mouse ehrlich ascites carcinoma model, rate of life prolonging
Method: as §1

mouse heat plate model = mouse heat plate model (pain threshold); conditions: 0.6 mg/kg weight intravenously
Method: (§2) The above samples were administrated by stomach infusion in a dose of 0.1 mg/kg weight to 16.0 mg/kg weight. […] In the mouse heat plate model, the above samples were administrated by intravenous injection in a dose of 0.1 mg/kg weight to 16.0 mg/kg weight. […] For example, the peptide of SDS-PAGE single band obtained in example 1 and 2 were injected intravenously at 0.6 mg/kg weight.

[2] = system: writhing response of mouse (acetic acid writhing model); conditions: administered by stomach infusion
Method: as §2

For O=P1(N(CCCl)CCCl)NCCCO1 (stereo not drawn) [cyclophosphamide, reference compound], the “inhibitory rate of tumor weight” value (S180 sarcoma solid tumor) was 50.5% and the “rate of life prolonging” value ([1]; dose 60.0 mg/kg weight, subcutaneous injection (positive control)) was 15.6%.

B1: Example 2: peptide having analgesic and antitumor activity purified from homogenized scorpion by the processes of Example 1; SEQ ID NO: 1 (protein)
chain: VRDGYIADDKNCAYFCGRNAYCDDECKKNGAESGYCQWAGVYGNACWCYKLPDKVPIRVPGKCNGG
modifications: Scorpion
For B1, the “pain threshold raised in a rate of” value (mouse heat plate model; at 5 min) was 16.5%, the “pain threshold raised in a rate of” value (mouse heat plate model; at 15 min) was 145.7% and the “pain threshold raised in a rate of” value (mouse heat plate model; at 25 min) was 219.1%. For the same molecule, the “pain threshold raised in a rate of” value (mouse heat plate model; at 35 min) was 219.1%, the “pain threshold raised in a rate of” value (mouse heat plate model; at 45 min) was 177.6% and the “pain threshold raised in a rate of” value (mouse heat plate model; at 60 min) was 32.4%. For the same molecule, the “pain threshold raised in a rate of” value (mouse heat plate model; at 90 min) was 14.9%, the “rate of life prolonging” value ([1]; stomach infusion, dose 0.213 mg/kg weight, ten days) was 16.8% and the “rate of life prolonging” value ([1]; stomach infusion, dose 0.639 mg/kg weight, ten days) was 31.5%. For the same molecule, the “ED50 (median effective dose)” value [2] was 2.86 mg/kg weight.
